B1: ZNF207 (parent)
chain: FPSAGQAQAAVQGPVGTDFKPLNS

Variants of: B1
Assay: protein stability index of a GFP-peptide fusion (GPS, HEK-293T) (PSI 1-6); higher = more stable
Conditions: c terminus: a fixed tail appended
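Note: lentivirally expressed fusions sorted by FACS into six bins by GFP to DsRed ratio, PSI derived from sequencing read proportions per bin multiplied by bin number.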

Going from FPSAGQAQAFVQGPVGTDFKPLNS [A10F] to FPSAGQAQASVQGPVGTDFKPLNS [A10S], the protein stability index rises from 2.22 to 3.73.

Compared with FPSAGQAQAIVQGPVGTDFKPLNS [A10I], FPSAGQAQAMVQGPVGTDFKPLNS [A10M] is lower in protein stability index: 3.22 for the first, 3.18 for the second.

Going from FPSAGQAQADVQGPVGTDFKPLNS [A10D] to FPSAGQAQAYVQGPVGTDFKPLNS [A10Y], the protein stability index falls from 3.69 to 2.95.

First: FPSAGQAQAPVQGPVGTDFKPLNS [A10P]
Second: FPSAGQAQATVQGPVGTDFKPLNS [A10T]
The protein stability index of the first is lower: 3.25 for the first, 3.41 for the second.

First: FPSAGQAQAWVQGPVGTDFKPLNS [A10W]
Second: FPSAGQAQAKVQGPVGTDFKPLNS [A10K]
The protein stability index of the first is lower: 2.24 for the first, 2.87 for the second.

Going from FPSAGQAQARVQGPVGTDFKPLNS [A10R] to FPSAGQAQAHVQGPVGTDFKPLNS [A10H], the protein stability index rises from 3.05 to 3.55.

Compared with FPSAGQAQAEVQGPVGTDFKPLNS [A10E], FPSAGQAQAVVQGPVGTDFKPLNS [A10V] is lower in protein stability index: 3.8 for the first, 2.99 for the second.

Compared with FPSAGQAQANVQGPVGTDFKPLNS [A10N], FPSAGQAQACVQGPVGTDFKPLNS [A10C] is lower in protein stability index: 3.13 for the first, 2.75 for the second.

Going from FPSAGQAQAQVQGPVGTDFKPLNS [A10Q] to FPSAGQAQAGVQGPVGTDFKPLNS [A10G], the protein stability index rises from 3.42 to 3.72.

Going from FPSAGQAQALVQGPVGTDFKPLNS [A10L] to FPPAGQAQAAVQGPVGTDFKPLNS [S3P], the protein stability index rises from 3.18 to 3.63.

First: FPRAGQAQAAVQGPVGTDFKPLNS [S3R]
Second: FPNAGQAQAAVQGPVGTDFKPLNS [S3N]
The protein stability index of the first is lower: 2.83 for the first, 3.08 for the second.

Going from FPMAGQAQAAVQGPVGTDFKPLNS [S3M] to FPWAGQAQAAVQGPVGTDFKPLNS [S3W], the protein stability index rises from 3.43 to 3.44.

First: FPTAGQAQAAVQGPVGTDFKPLNS [S3T]
Second: FPVAGQAQAAVQGPVGTDFKPLNS [S3V]
The protein stability index of the first is higher: 4 for the first, 3.61 for the second.

First: FPQAGQAQAAVQGPVGTDFKPLNS [S3Q]
Second: FPYAGQAQAAVQGPVGTDFKPLNS [S3Y]
The protein stability index of the first is higher: 3.81 for the first, 2.34 for the second.

Going from FPSAGQAQAAVQLPVGTDFKPLNS [G13L] to FPSAGQAQAAVQDPVGTDFKPLNS [G13D], the protein stability index rises from 3.69 to 3.74.

Compared with FPSAGQAQAAVQCPVGTDFKPLNS [G13C], FPSAGQAQAAVQFPVGTDFKPLNS [G13F] is lower in protein stability index: 3.4 for the first, 2.9 for the second.

First: FPSAGQAQAAVQKPVGTDFKPLNS [G13K]
Second: FPSAGQAQAAVQIPVGTDFKPLNS [G13I]
The protein stability index of the first is higher: 3.76 for the first, 3.22 for the second.

Compared with FPSAGQAQAAVQAPVGTDFKPLNS [G13A], FPSAGQAQAAVQEPVGTDFKPLNS [G13E] is higher in protein stability index: 3.26 for the first, 3.79 for the second.

First: FPSAGQAQAAVQHPVGTDFKPLNS [G13H]
Second: FPSADQAQAAVQGPVGTDFKPLNS [G5D]
The protein stability index of the first is lower: 3.37 for the first, 4.67 for the second.

Compared with FPSAVQAQAAVQGPVGTDFKPLNS [G5V], FPSARQAQAAVQGPVGTDFKPLNS [G5R] is lower in protein stability index: 3.96 for the first, 3.78 for the second.

Going from FPSAFQAQAAVQGPVGTDFKPLNS [G5F] to FPSAAQAQAAVQGPVGTDFKPLNS [G5A], the protein stability index rises from 1.51 to 2.44.

First: FPSAWQAQAAVQGPVGTDFKPLNS [G5W]
Second: FPSAQQAQAAVQGPVGTDFKPLNS [G5Q]
The protein stability index of the first is lower: 1.66 for the first, 4.19 for the second.

First: FPSACQAQAAVQGPVGTDFKPLNS [G5C]
Second: FPSAYQAQAAVQGPVGTDFKPLNS [G5Y]
The protein stability index of the first is higher: 2.75 for the first, 1.82 for the second.

Compared with FPSAMQAQAAVQGPVGTDFKPLNS [G5M], FPSAPQAQAAVQGPVGTDFKPLNS [G5P] is higher in protein stability index: 3.01 for the first, 4.07 for the second.

Compared with FPSALQAQAAVQGPVGTDFKPLNS [G5L], FPSASQAQAAVQGPVGTDFKPLNS [G5S] is higher in protein stability index: 3.19 for the first, 3.3 for the second.

Compared with FPSAIQAQAAVQGPVGTDFKPLNS [G5I], FPSAKQAQAAVQGPVGTDFKPLNS [G5K] is higher in protein stability index: 4.11 for the first, 4.23 for the second.

First: FPSANQAQAAVQGPVGTDFKPLNS [G5N]
Second: FPSAHQAQAAVQGPVGTDFKPLNS [G5H]
The protein stability index of the first is higher: 4.08 for the first, 3.79 for the second.

First: FPSATQAQAAVQGPVGTDFKPLNS [G5T]
Second: FPSAEQAQAAVQGPVGTDFKPLNS [G5E]
The protein stability index of the first is lower: 4.11 for the first, 4.17 for the second.

Going from FPSAGQAMAAVQGPVGTDFKPLNS [Q8M] to FPSAGQAWAAVQGPVGTDFKPLNS [Q8W], the protein stability index falls from 2.72 to 1.89.

First: FPSAGQAKAAVQGPVGTDFKPLNS [Q8K]
Second: FPSAGQAGAAVQGPVGTDFKPLNS [Q8G]
The protein stability index of the first is higher: 3.89 for the first, 3.77 for the second.

Compared with FPSAGQASAAVQGPVGTDFKPLNS [Q8S], FPSAGQAFAAVQGPVGTDFKPLNS [Q8F] is lower in protein stability index: 3.68 for the first, 1.48 for the second.

Going from FPSAGQANAAVQGPVGTDFKPLNS [Q8N] to FPSAGQAEAAVQGPVGTDFKPLNS [Q8E], the protein stability index rises from 3.57 to 4.04.

Compared with FPSAGQATAAVQGPVGTDFKPLNS [Q8T], FPSAGQAVAAVQGPVGTDFKPLNS [Q8V] is lower in protein stability index: 3.47 for the first, 3.31 for the second.

First: FPSAGQARAAVQGPVGTDFKPLNS [Q8R]
Second: FPSAGQAAAAVQGPVGTDFKPLNS [Q8A]
The protein stability index of the first is lower: 3.47 for the first, 4.04 for the second.

First: FPSAGQACAAVQGPVGTDFKPLNS [Q8C]
Second: FPSAGQADAAVQGPVGTDFKPLNS [Q8D]
The protein stability index of the first is lower: 3.23 for the first, 3.87 for the second.

Compared with FPSAGQALAAVQGPVGTDFKPLNS [Q8L], FPSAGQAPAAVQGPVGTDFKPLNS [Q8P] is higher in protein stability index: 2.11 for the first, 3.38 for the second.

First: FPSAGQAYAAVQGPVGTDFKPLNS [Q8Y]
Second: FPSAGQAIAAVQGPVGTDFKPLNS [Q8I]
The protein stability index of the first is lower: 1.71 for the first, 2.76 for the second.

Going from FPSAGQAHAAVQGPVGTDFKPLNS [Q8H] to FPSAGQAQCAVQGPVGTDFKPLNS [A9C], the protein stability index rises from 3.35 to 3.37.

Going from FPSAGQAQFAVQGPVGTDFKPLNS [A9F] to FPSAGQAQVAVQGPVGTDFKPLNS [A9V], the protein stability index rises from 2.02 to 2.93.

First: FPSAGQAQYAVQGPVGTDFKPLNS [A9Y]
Second: FPSAGQAQTAVQGPVGTDFKPLNS [A9T]
The protein stability index of the first is lower: 2.13 for the first, 2.99 for the second.

Compared with FPSAGQAQDAVQGPVGTDFKPLNS [A9D], FPSAGQAQRAVQGPVGTDFKPLNS [A9R] is lower in protein stability index: 4.02 for the first, 3.47 for the second.

Compared with FPSAGQAQSAVQGPVGTDFKPLNS [A9S], FPSAGQAQPAVQGPVGTDFKPLNS [A9P] is higher in protein stability index: 3.1 for the first, 3.53 for the second.

Going from FPSAGQAQMAVQGPVGTDFKPLNS [A9M] to FPSAGQAQHAVQGPVGTDFKPLNS [A9H], the protein stability index rises from 3.06 to 3.31.

First: FPSAGQAQLAVQGPVGTDFKPLNS [A9L]
Second: FPSAGQAQWAVQGPVGTDFKPLNS [A9W]
The protein stability index of the first is higher: 2.62 for the first, 2.45 for the second.

Going from FPSAGQAQQAVQGPVGTDFKPLNS [A9Q] to FPSAGQAQIAVQGPVGTDFKPLNS [A9I], the protein stability index falls from 4.06 to 2.86.

First: FPSAGQAQGAVQGPVGTDFKPLNS [A9G]
Second: FPSAGQAQEAVQGPVGTDFKPLNS [A9E]
The protein stability index of the first is lower: 3.13 for the first, 3.74 for the second.

First: FPSAGQAQNAVQGPVGTDFKPLNS [A9N]
Second: FPSAGQAQKAVQGPVGTDFKPLNS [A9K]
The protein stability index of the first is higher: 3.83 for the first, 3.52 for the second.

— the supplement of paper PMC10567573
